The Human Domainome abundance scans (Beltran et al. 2025)
± gives the uncertainty stated by the source.

B1: Syntaxin-binding protein 4, residues 493 to 538; numbered along this chain, Q6ZWJ1 (parent)
chain: LDMDCLPYGWEEAYTADGIKYFINHVTQTTSWIHPVMSVLNLSRSE

Variants of: B1
Experiment: abundance fitness (aPCA) (normalised: wild type 0, dead -1); higher = more abundant; growth selection in yeast, the domain comes from the species named
Conditions: Homo sapiens

L40C and L40F are within error of each other in abundance fitness: -0.154 ± 0.11 for the first, -0.304 ± 0.14 for the second.

H34M and H34R are within error of each other in abundance fitness: -0.74 ± 0.17 for the first, -0.488 ± 0.082 for the second.

H34G and H34F are within error of each other in abundance fitness: -0.822 ± 0.1 for the first, -1.14 ± 0.31 for the second.

Going from H34E to H34S, the abundance fitness rises from -0.826 ± 0.13 to -0.443 ± 0.097.

Compared with H34P, H34Y is lower in abundance fitness: -0.181 ± 0.11 for the first, -0.689 ± 0.15 for the second.

H34W and H34V are within error of each other in abundance fitness: -1.11 ± 0.15 for the first, -1 ± 0.14 for the second.

H34K and H34C are within error of each other in abundance fitness: -0.686 ± 0.15 for the first, -0.439 ± 0.12 for the second.

H34D and H34Q are within error of each other in abundance fitness: -0.54 ± 0.24 for the first, -0.555 ± 0.15 for the second.

First: H34N
Second: H34T
The abundance fitness of the first is higher: -0.141 ± 0.13 for the first, -0.877 ± 0.13 for the second.

H34I and S43F are within error of each other in abundance fitness: -0.724 ± 0.19 for the first, -0.531 ± 0.12 for the second.

S43M and S43L are within error of each other in abundance fitness: -0.75 ± 0.17 for the first, -0.698 ± 0.14 for the second.

S43I and S43A are within error of each other in abundance fitness: -0.606 ± 0.16 for the first, -0.526 ± 0.11 for the second.

S43N and S43P are within error of each other in abundance fitness: 0.116 ± 0.16 for the first, -0.064 ± 0.12 for the second.

Going from S43R to S43Q, the abundance fitness falls from -0.17 ± 0.094 to -0.732 ± 0.26.

S43Y and S43K are within error of each other in abundance fitness: -0.876 ± 0.24 for the first, -0.846 ± 0.23 for the second.

Compared with S43V, S43E is higher in abundance fitness: -0.44 ± 0.11 for the first, 0.119 ± 0.11 for the second.

S43T and S43H are within error of each other in abundance fitness: -0.183 ± 0.14 for the first, -0.021 ± 0.25 for the second.

Going from S43D to S43C, the abundance fitness falls from 0.129 ± 0.12 to -0.518 ± 0.13.

S43W and S38L are within error of each other in abundance fitness: -1 ± 0.16 for the first, -0.78 ± 0.11 for the second.

S38V and S38Y are within error of each other in abundance fitness: -0.502 ± 0.094 for the first, -0.376 ± 0.14 for the second.

First: S38P
Second: S38Q
The abundance fitness of the first is higher: -0.141 ± 0.097 for the first, -0.697 ± 0.15 for the second.

Going from S38R to S38M, the abundance fitness falls from -0.418 ± 0.085 to -0.663 ± 0.13.

Compared with S38W, S38A is lower in abundance fitness: -0.264 ± 0.1 for the first, -0.649 ± 0.1 for the second.

S38F and S38C are within error of each other in abundance fitness: -0.531 ± 0.13 for the first, -0.567 ± 0.14 for the second.

Going from S38H to S38D, the abundance fitness rises from -0.678 ± 0.21 to -0.004 ± 0.13.

First: S38T
Second: S38N
The abundance fitness of the first is lower: -0.75 ± 0.13 for the first, -0.046 ± 0.13 for the second.

S38E and S38K are within error of each other in abundance fitness: -0.693 ± 0.13 for the first, -0.479 ± 0.11 for the second.

S38I and S45L are within error of each other in abundance fitness: -0.845 ± 0.23 for the first, -0.509 ± 0.11 for the second.

First: S45V
Second: S45W
The abundance fitness of the first is higher: -0.103 ± 0.11 for the first, -0.914 ± 0.22 for the second.

Compared with S45H, S45P is higher in abundance fitness: -0.438 ± 0.16 for the first, -0.127 ± 0.15 for the second.

Going from S45K to S45F, the abundance fitness falls from -0.169 ± 0.18 to -0.759 ± 0.18.

S45A and S45R are within error of each other in abundance fitness: -0.186 ± 0.11 for the first, -0.173 ± 0.11 for the second.

S45Q and S45Y are within error of each other in abundance fitness: -0.32 ± 0.2 for the first, -0.287 ± 0.13 for the second.

S45T and S45E are within error of each other in abundance fitness: -0.089 ± 0.11 for the first, 0.092 ± 0.18 for the second.

Compared with S45M, S45D is higher in abundance fitness: -0.986 ± 0.29 for the first, -0.06 ± 0.14 for the second.

Compared with V36E, V36P is lower in abundance fitness: 0.44 ± 0.093 for the first, -0.597 ± 0.12 for the second.

V36W and V36F are within error of each other in abundance fitness: -0.424 ± 0.12 for the first, -0.444 ± 0.12 for the second.

First: V36Y
Second: V36A
The abundance fitness of the first is lower: -0.254 ± 0.13 for the first, 0.59 ± 0.083 for the second.

Compared with V36H, V36R is higher in abundance fitness: 0.224 ± 0.14 for the first, 0.712 ± 0.081 for the second.

V36Q and V36G are within error of each other in abundance fitness: 0.391 ± 0.1 for the first, 0.528 ± 0.082 for the second.

Compared with V36K, V36T is lower in abundance fitness: 0.746 ± 0.11 for the first, 0.526 ± 0.095 for the second.

Going from V36L to V36I, the abundance fitness falls from -0.035 ± 0.082 to -0.598 ± 0.15.

V36N and V36C are within error of each other in abundance fitness: 0.571 ± 0.14 for the first, 0.585 ± 0.11 for the second.

First: V36S
Second: V36D
The abundance fitness of the first is higher: 0.659 ± 0.084 for the first, 0.168 ± 0.11 for the second.

Compared with W32Q, W32N is higher in abundance fitness: -0.86 ± 0.25 for the first, -0.342 ± 0.25 for the second.

W32F and W32G are within error of each other in abundance fitness: -0.558 ± 0.16 for the first, -0.664 ± 0.089 for the second.

Compared with W32V, W32L is higher in abundance fitness: -0.787 ± 0.12 for the first, -0.49 ± 0.097 for the second.

Going from W32M to W32P, the abundance fitness falls from -0.151 ± 0.12 to -0.581 ± 0.14.

Going from W32S to W32Y, the abundance fitness rises from -0.679 ± 0.11 to -0.33 ± 0.17.

First: W32T
Second: W32K
The abundance fitness of the first is lower: -0.872 ± 0.15 for the first, -0.576 ± 0.12 for the second.

Compared with W32R, W32H is lower in abundance fitness: -0.408 ± 0.085 for the first, -1.09 ± 0.29 for the second.

Going from E46S to E46G, the abundance fitness rises from -0.582 ± 0.49 to 0.23 ± 0.12.

E46F and E46K are within error of each other in abundance fitness: -0.308 ± 0.3 for the first, -0.478 ± 0.4 for the second.

First: E46C
Second: E46D
The abundance fitness of the first is higher: 0.486 ± 0.49 for the first, -0.243 ± 0.13 for the second.

E46N and E46A are within error of each other in abundance fitness: -0.139 ± 0.31 for the first, -0.517 ± 0.18 for the second.

E46T and E46L are within error of each other in abundance fitness: -0.143 ± 0.24 for the first, -0.668 ± 0.37 for the second.

E46Q and E46R are within error of each other in abundance fitness: 0.008 ± 0.5 for the first, -0.132 ± 0.2 for the second.

E46V and N41M are within error of each other in abundance fitness: -0.365 ± 0.19 for the first, -0.403 ± 0.11 for the second.

Compared with N41F, N41W is higher in abundance fitness: -1.02 ± 0.2 for the first, -0.197 ± 0.093 for the second.

Going from N41T to N41K, the abundance fitness falls from -0.23 ± 0.12 to -0.635 ± 0.15.

N41E and N41C are within error of each other in abundance fitness: -0.227 ± 0.1 for the first, -0.236 ± 0.14 for the second.

First: N41G
Second: N41V
The abundance fitness of the first is higher: -0.215 ± 0.083 for the first, -0.694 ± 0.098 for the second.

Going from N41H to N41A, the abundance fitness rises from -0.681 ± 0.2 to -0.313 ± 0.087.

N41S and N41P are within error of each other in abundance fitness: -0.227 ± 0.09 for the first, -0.38 ± 0.11 for the second.

N41Q and N41L are within error of each other in abundance fitness: -0.514 ± 0.14 for the first, -0.684 ± 0.1 for the second.

Compared with N41D, N41R is lower in abundance fitness: 0.174 ± 0.12 for the first, -0.493 ± 0.096 for the second.

M37Y and M37V are within error of each other in abundance fitness: -0.374 ± 0.2 for the first, -0.226 ± 0.1 for the second.

First: M37T
Second: M37Q
The abundance fitness of the first is lower: 0.146 ± 0.11 for the first, 0.397 ± 0.12 for the second.

M37R and M37K are within error of each other in abundance fitness: 0.558 ± 0.079 for the first, 0.38 ± 0.11 for the second.

Compared with M37H, M37E is higher in abundance fitness: -0.15 ± 0.17 for the first, 0.327 ± 0.095 for the second.

M37C and M37A are within error of each other in abundance fitness: 0.056 ± 0.11 for the first, 0.219 ± 0.093 for the second.

Going from M37G to M37S, the abundance fitness rises from 0.059 ± 0.08 to 0.28 ± 0.09.

M37F and M37P are within error of each other in abundance fitness: -0.292 ± 0.18 for the first, -0.603 ± 0.14 for the second.

First: M37N
Second: M37L
The abundance fitness of the first is higher: 0.404 ± 0.21 for the first, -0.085 ± 0.092 for the second.

Compared with R44Q, R44W is lower in abundance fitness: -0.063 ± 0.13 for the first, -0.527 ± 0.15 for the second.

R44H and R44M are within error of each other in abundance fitness: -0.287 ± 0.15 for the first, -0.292 ± 0.15 for the second.

R44K and R44T are within error of each other in abundance fitness: -0.162 ± 0.14 for the first, -0.285 ± 0.13 for the second.

R44C and R44P are within error of each other in abundance fitness: 0.016 ± 0.11 for the first, 0.041 ± 0.12 for the second.

Compared with R44I, R44E is higher in abundance fitness: -1.3 ± 0.33 for the first, 0.376 ± 0.11 for the second.

R44D and R44S are within error of each other in abundance fitness: 0.169 ± 0.12 for the first, 0.096 ± 0.087 for the second.

Compared with R44F, R44A is higher in abundance fitness: -0.881 ± 0.18 for the first, -0.134 ± 0.098 for the second.

First: R44L
Second: R44Y
The abundance fitness of the first is lower: -0.512 ± 0.11 for the first, -0.109 ± 0.14 for the second.

First: R44G
Second: R44N
The abundance fitness of the first is higher: 0.377 ± 0.077 for the first, -0.104 ± 0.14 for the second.

R44V gave an abundance fitness of -0.147 ± 0.085.
